Key:
PECAM-1 = assay: RT-PCR of adhesion molecule mRNA in HCEC; format: cell-based, human; details: CAP37 1 μg/ml
Procedure: (§1) Cultured HCEC were treated with CAP37 (1 μg/ml) for 0-24 hr at 37° C. Total cellular RNA was isolated from untreated and treated HCEC according to vendor specifications (TRIzol™, GIBCO BRL). After reverse-transcription of 5 μg of total RNA by SuperScript™ II RT (GIBCOBRL) the resulting single stranded cDNA was amplified by PCR (BIOMETRA TGRADIENT, Göttingen, Germany) using specific primers for ICAM-1 (([…] (SEQ ID NO:11) and […] (SEQ ID NO:12)); VCAM-1 (([…] (SEQ ID NO:13) and […] (SEQ ID NO:14)); PECAM-1 (([…] (SEQ ID NO:15) and […] (SEQ ID NO:16)); E-selectin (([…] (SEQ ID NO:17) and […] (SEQ ID NO:18)); and β-actin ((TACCTCATGAAGATCCTCA (SEQ ID NO:19) and TTCGTGGATGCCACAGGAC (SEQ ID NO:20))) synthesized by the Molecular Biology Resource Facility, University of Oklahoma Health Sciences Center. The thermocycler conditions for ICAM-1 and VCAM-1 were 95° C. for 5 min initially, with 30 cycles at 95° C. for 1 min, 58° C. for 45 sec, 72° C. for 1 min followed by a final extension at 72° C. for 7 min. The conditions for E-selectin were 95° C. for 5 min initially, with 30 cycles at 94° C. for 1 min, 58° C. for 1 min, 72° C. for 1 min followed by a final extension at 72° C. for 5 min. The conditions for PECAM-1 were 95° C. for 5 min initially, with 30 cycles at 95° C. for 45 sec, 60° C. for 1 min, 72° C. for 1 min followed by a final extension at 72° C. for 5 min.
(§2) Amplified DNA fragments were separated by electrophoresis on a 1% agarose gel and visualized by exposure to UV after ethidium bromide (0.5 μg/ml) staining. Expected sizes for ICAM-1, VCAM-1, PECAM-1, E-selectin and β-actin were 943 bp, 700 bp, 677 bp, 315 bp and 267 bp, respectively. To assess the integrity of the cDNA, primers for human β-actin were used.

E-selectin = assay: RT-PCR of adhesion molecule mRNA in HCEC; format: cell-based, human; details: CAP37 1 μg/ml, 0-24 hr
Procedure: as §1, §2

ICAM-1 [1] = assay: RT-PCR of adhesion molecule mRNA in HCEC; format: cell-based, human; details: CAP37 1 μg/ml, beginning at 2 hr and lasting through 24 hr
Procedure: as §1, §2

VCAM-1 = assay: RT-PCR of adhesion molecule mRNA in HCEC; format: cell-based, human; details: CAP37 1 μg/ml, 0-24 hr
Procedure: as §1, §2

[2] = tested on: human corneal epithelial cells (HCEC); assay: CyQUANT cell proliferation assay; format: cell-based; details: for Increase in cell numbers: 72 hr post treatment
Procedure: Human corneal epithelial cells were seeded onto 48 well tissue culture plates (7.5×10^3 cells/well, FALCON, Franklin Lakes, N.J.) and cultured as described above.
Cultures were changed to growth factor-free basic medium overnight and treated with various concentrations of CAP37 (0-2000 ng/ml) for 48-72 hrs. Recombinant human Epidermal Growth Factor (EGF 50 ng/ml, BECTON DICKINSON, Bedford, Mass.) and recombinant human Hepatocyte Growth Factor/Scatter Factor (HGF/SF 20 ng/ml, BECTON DICKINSON) were used as positive controls and growth factor-free basic medium as negative control. The medium was aspirated and new medium with CAP37 or growth factors were added to the cultures every 24 hr. The CyQUANT Cell Proliferation Assay Kit (MOLECULAR PROBES, Eugene, Oreg.) was used to quantify cell proliferation exactly according to the manufacturer's specifications. Briefly, cells were frozen, thawed, and lysed with the addition of the lysis buffer containing the green fluorescent dye, CyQUANT GR which binds to nucleic acids and the fluorescence levels read on fluorescent micro plate reader (fmax MOLECULAR DEVICES, Sunnyvale, Calif.) with filters for 485 nm excitation and 538 nm emission.

ICAM-1 [3] = assay: Flow cytometry of ICAM-1 expression on HCEC; format: cell-based, human; details: for Upregulation of ICAM-1: 1000 ng/ml
Procedure: Flow cytometry was used to assess the upregulation of ICAM-1 and VCAM-1 on HCEC in response to CAP37 treatment. HCEC were cultured as described above and treated with CAP37 (0-2000 ng/ml) for 0, 2, 6, 24, 48 and 72 hr. A corresponding culture was left untreated at each time point. Following treatment with CAP37, cells were detached with 5 mM EDTA (pH 7.4, Fisher Scientific), washed twice in PBS and fixed with 0.125% paraformaldehyde (J.T. Baker, Phillipsburg, N.J.) overnight at 4° C. The cells were washed in PBS and then incubated in 0.5% normal goat serum and 0.5% BSA in PBS for 30 min to block non-specific binding sites. For determination of ICAM-1 expression, cells were incubated in the primary antibody (FITC-labeled mouse anti-human ICAM-1, BIOSOURCE, Camarillo, Calif.) at 10^6 cells/10 μl at 4° C. for 1 hr. Cells were washed in PBS and analyzed by flow cytometry (FACSTAR, BECTON DICKINSON, San Jose, Calif.). For detection of VCAM-1 expression, cells were incubated with unlabeled primary antibody (monoclonal mouse anti human VCAM-1, ENDOGEN, Woburn, Mass. at 2 μg/10^6 cells) followed by FITC-labeled goat anti-mouse IgG (PHARMINGEN, San Diego, Calif.) at 5 μg/10^6 cells and incubated at 4° C. for 30 min. The isotype control for these studies was FITC-labeled mouse isotype IgG1 (PHARMINGEN). The positive control used in these studies was TNF-α (5 ng/ml). At least ten thousand cells were analyzed for each sample.

B1: CAP37: Cationic Antimicrobial Protein of Mr 37 kDa; recombinant protein from human 293 cells, identical to native PMN-derived CAP37 (SEQ ID NO:1) (protein, listed as Homo sapiens)
chain: IVGGRKARPRQFPFLASIQNQGRHFCGGALIHARFVMTAASCFQSQNPGVSTVVLGAYDLRRRERQSRQTFSISSMSENGYDPQQNLNDLMLLQLDREANLTSSVTILPLPLQNATVEAGTRCQVAGWGSQRSGGRLSRFPRFVNVTVTPEDQCRPNNVCTGVLTRRGGICNGDGGTPLVCEGLAHGVASFSLGPCGRGPDFFTRVALFRDWIDGVLNNPGP
- Time PECAM-1 message first detected after stimulation (PECAM-1): 2 h
- Time of maximum PECAM-1 message (PECAM-1): 4 h
- PECAM-1 message (PECAM-1; transient, not detected after 6 hr): upregulated
- mRNA expression of E-selectin (E-selectin): did not show increase in mRNA expression
- ICAM-1 message (ICAM-1 [1]): clear upregulation of ICAM-1 message
- mRNA expression of VCAM-1 (VCAM-1): did not show increase in mRNA expression
- Levels of proliferation relative to positive controls ([2]; 1000-2000 ng/ml, 48 hours): comparable to those obtained with the two positive controls, EGF and HGF
- Proliferation of HCEC ([2]; 48 hours post treatment, versus culture medium alone): significant increase in proliferation over basal levels
- Increase in cell numbers ([2]; 1000 ng/ml): approximately two
- Increase in cell numbers ([2]; 2000 ng/ml): three
- Upregulation of ICAM-1 (ICAM-1 [3]; 2 hr): no upregulation of ICAM-1 could be detected
- Upregulation of ICAM-1 (ICAM-1 [3]; 6 hr): significant upregulation of ICAM-1
- Upregulation of ICAM-1 (ICAM-1 [3]; 24 hr): still above the untreated levels
- ICAM-1 levels relative to positive control (ICAM-1 [3]; 1000-2000 ng/ml, TNF-α 5 ng/ml as positive control): comparable to those obtained with the positive control TNF-α
- Concentration giving maximum upregulation of ICAM-1 (ICAM-1 [3]; HCEC, 6 hr, flow cytometry): 1000 to 2000 ng/mL
- ICAM-1 levels (ICAM-1 [3]; concentrations between 10 and 500 ng/ml): Lower, yet significant levels of ICAM-1
